Substitutions are numbered along the chain they refer to. Blank lines part the entries; values can stand above or below the molecule they belong to.
What was measured:
[1] = molecular target: purified recombinant human GITR protein (Example 1) (human) (UniProt Q9Y5U5); assay: SPR (BIAcore), huGITR immobilized on CM5, analyte 12.5-200 nM
[2] = molecular target: T1, purified recombinant human GITR protein (Example 1) (human, UniProt Q9Y5U5 26-162, limits assumed); assay: SPR (BIAcore), huGITR immobilized on CM5, antibody 6.25-100 nM
T1 construct: also called Hu GITR recomb protein; immobilized huGITR
T1 sequence: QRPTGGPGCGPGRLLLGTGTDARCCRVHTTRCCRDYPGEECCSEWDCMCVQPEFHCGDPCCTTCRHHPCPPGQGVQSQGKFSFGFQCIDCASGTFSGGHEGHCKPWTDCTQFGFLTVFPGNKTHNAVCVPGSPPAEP
Protocol: Analysis of ligand (GITR-L) and monoclonal antibody binding to immobilized huGITR was performed by surface plasmon resonance and measured on BIAcore®. GITR (˜1100 RU) was immobilized onto a CM5 sensor chip using standard amine coupling. Analytes were injected over the immobilized GITR for 15 minutes at a flow rate of 5 μl/min followed by a 10 minute dissociation period. After kinetic runs had been performed the affinity and dissociation constants were simultaneously calculated by BiaEvaluation® software (Biacore Life Sciences). Binding of human GITR-L was analysed over a concentration range of 12.5-200 nM and murine anti-GITR monoclonal antibodies were analysed over a concentration of 6.25-100 nM. […] Affinity and dissociation constants for the antibodies are tabulated below in Table 9.

recombinant mouse GITR = molecular target: T2, recombinant mouse GITR (mouse, UniProt O35714 20-153, limits assumed); assay: Western blot, non-reducing
T2 construct: also called Mu GITR recomb protein; immobilized mouse GITR
T2 sequence (looked up): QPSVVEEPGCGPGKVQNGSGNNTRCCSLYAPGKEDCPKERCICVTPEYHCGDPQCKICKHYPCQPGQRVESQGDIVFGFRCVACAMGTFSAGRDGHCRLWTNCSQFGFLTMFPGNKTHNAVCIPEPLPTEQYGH
Protocol: The specificity of the anti-GITR-antibodies was tested by Western blot against purified recombinant human GITR, recombinant mouse GITR, CMS5a cells transfected with human GITR, wild-type CMS5a cells, activated CD4⁺ T cells and untreated CD4⁺ T cells. The Western blot, under non-reducing conditions, is depicted in FIG. 1. The anti-GITR antibodies were reactive with purified recombinant human GITR, not reactive with recombinant mouse GITR, reactive with recombinant human GITR in CMS5a cells, and reactive with natural human GITR in activated CD4⁺ T cells.

[3] = molecular target: T3, human GITR D60A mutant on 1624-5 cells (human, UniProt Q9Y5U5 26-241); assay: flow cytometry on 1624-5 cells, 2 µg/ml, MFI ratio to polyclonal antibody
T3 chain: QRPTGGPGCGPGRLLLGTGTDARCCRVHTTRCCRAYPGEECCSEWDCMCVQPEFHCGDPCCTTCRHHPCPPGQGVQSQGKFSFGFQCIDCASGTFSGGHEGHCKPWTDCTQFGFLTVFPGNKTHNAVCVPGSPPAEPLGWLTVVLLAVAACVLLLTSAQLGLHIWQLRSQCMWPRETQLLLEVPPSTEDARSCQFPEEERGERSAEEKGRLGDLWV
Protocol: (§1) An average MFI ratio (“AMFI ratio”) was calculated based on the individual MFI ratios for all the mutants. FIG. 34A is a table summarizing the binding of Hum231#2, three germline variants (pab1967, pab1975 and pab1979) and the reference antibody m6C8 to1624-5 cells expressing human GITR alanine mutants. An individual MFI ratio that is above 60% of the AMFI ratio is considered to indicate similar binding, after normalization, of that of the polyclonal antibody and is represented by “+” in FIG. 34A. An individual MFI ratio that is between 30% and 60% of the AMFI ratio is represented by “+/−” in FIG. 34A. An individual MFI ratio that is below 30% of the AMFI ratio is represented by “−” in FIG. 34A.
(§2) All the mean fluorescence intensity (MFI) values were calculated as the mean of two measurements. […] The percentage of binding of an antibody to the GITR alanine mutants relative to the wild type GITR was calculated by dividing a particular MFI ratio for the GITR alanine mutants by the corresponding MFI ratio for the wild type (e.g., dividing MFI ratio_{Hum231#2, D60A} by MFI ratio_{Hum231#2, WT}). The percentage of reduction in binding was determined by calculating, e.g., 100%*(1−(MFI ratio_{Hum231#2, D60A}/MFI ratio_{Hum231#2, WT})).

[4] = molecular target: T4, human GITR G63A mutant on 1624-5 cells (human, UniProt Q9Y5U5 26-241); assay: as above
T4 chain: T3 chain with A35D, G38A
Protocol: as §1, §2

Molecule: human GITR-L (Example 1, BIAcore analyte) (from UniProt Q9UNG2 49-177) (ligand)
Ka [1]: 1.81e+08 M⁻¹
Kd [1]: 5.54 nM

B3: mAb 231-1333-21 (murine) (antibody, mouse IgG1, V domains shown)
VH: QVQLLQSGTELVRPGVSVKISCKGSGYTFTDYAMYWVKQSHAKSLEWIGVIRTYSGDVTYNQKFKDKATMTVDKSSSIAYMELARLSSEDSAIYYCAKSGTVRGFAYWGQGTLVTVSS
VL: DIVMTQSPSSLTVTAGEKVIMSCKSSQSLLNSGNQKNYLTWYQQKPGQPPKLLIYWASTRESGVPDRFTGSGSGTDFTLTISSVQAEDLAVYHCQNDYSYPYTFGGGTKLEIK
notes: Mouse IgG1 from hybridoma
Ka [2]: 4.19e+08 M⁻¹
Kd [2]: 2.39 nM
binding result (recombinant mouse GITR): no binding

B5: m6C8 (antibody, human IgG1, V domains shown)
VH: QVTLKESGPGILKPSQTLSLTCSFSGFSLSTSGMGVGWIRQPSGKGLEWLAHIWWDDDKYYNPSLKSQLTISKDTSRNQVFLKITSVDTADAATYYCARTRRYFPFAYWGQGTLVTVSS
VL: DIVMTQSQKFMSTSVGDRVSVTCKASQNVGTNVAWYQQKPGQSPKALIYSASYRYSGVPDRFTGSGSGTDFTLTINNVHSEDLAEYFCQQYNTDPLTFGAGTKLEIKR
notes: also called murine antibody 6C8
percent reduction in binding relative to wild type human GITR [3]: 10%
percent increase in binding relative to wild type human GITR [4]: 62%

The remaining lines, values ahead:

Ka [2]: 4.2e+08 M⁻¹
Kd [2]: 2.38 nM
binding result (recombinant mouse GITR): no binding
B1: mAb 231-1039-45 (murine) (antibody, mouse IgG1, V domains shown)
VH: B3 VH
VL: B3 VL
notes: Mouse IgG1 from hybridoma

Ka [2]: 4.04e+08 M⁻¹
Kd [2]: 2.47 nM
binding result (recombinant mouse GITR): no binding
B2: mAb 231-32-15 (murine) (antibody, mouse IgG1, V domains shown)
VH: B3 VH
VL: B3 VL
notes: Mouse IgG1 from hybridoma; also called antibody 32-15

Ka [2]: 4.3e+08 M⁻¹
Kd [2]: 2.33 nM
binding result (recombinant mouse GITR): no binding
B4: mAb 231-1042-7 (murine) (antibody, mouse IgG1, V domains shown)
VH: B3 VH
VL: B3 VL
notes: Mouse IgG1 from hybridoma

— US20210070872A1 (AGENUS, published 2021)
